The source of these data is US20240010720A1 (IOMX THERAPEUTICS, published 2024).

The target in assay [1] is T1, recombinant human IGSF11 (VSIG3) extracellular domain (ECD) (human, UniProt Q5DX21 23-241, biotinylated where captured on streptavidin).
T1 construct: also called biotinylated recombinant ECD-IGSF11; IGSF11 (ECD domain)
T1 sequence: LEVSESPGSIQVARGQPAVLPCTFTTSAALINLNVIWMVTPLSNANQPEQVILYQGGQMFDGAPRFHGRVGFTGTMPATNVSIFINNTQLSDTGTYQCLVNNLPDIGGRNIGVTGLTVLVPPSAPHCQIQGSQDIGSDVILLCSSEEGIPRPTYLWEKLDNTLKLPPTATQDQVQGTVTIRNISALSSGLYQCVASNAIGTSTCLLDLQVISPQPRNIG
In words: SPR, IgG1. (In general: Surface plasmon resonance follows binding to a sensor surface in real time, without labels.)

The target in assay [2] is T2, His-tagged extracellular domain (ECD) of human IGSF11 (VSIG3) (human, UniProt Q5DX21 23-241).
T2 construct: partly bought (SinoBiological 13094-H08H); also called IGSF11-HIS; HIS-IGSF11; not shown: HIS6 tag
T2 sequence: T1 sequence
As to the kind of experiment: ELISA EC50 grade, IgG1.

Assay [3] deals with T3, recombinant cynomolgus monkey IGSF11 extracellular domain (ECD) (cynomolgus monkey, UniProt Q5DX21 23-241 (human entry), biotinylated).
T3 chain: T1 sequence with P17T, I83V, A185T, S187T
As to the kind of experiment: ELISA, Fab.
Description: In order to identify IGSF11-specific binding ABPs, monoclonal Fabs expressed from E. coli were generated from the enriched set of anti-IGFS11 antibody-expressing phage. After bacterial lysis, the Fabs were tested for their binding properties and cross-reactivity profile on recombinant ECD-IGSF11 (human, mouse and cynomolgus monkey) by standard ELISA. Briefly, biotinylated recombinant ECD-IGSF11 from human, mouse, or cynomolgus monkey were immobilized at 2 ug/mL on a streptavidin-coated 384-well Maxisorp plate. The surface was blocked with 2% (w/v) skim milk powder in PBST. After three wash cycles with PBST, a bacterial lysate of each of the anti-IGSF11 Fabs in 2% (w/v) skim milk powder was applied to the immobilized IGSF11 and incubated for 1 h. After removing all unbound Fab by 3 wash cycles with PBST, bound Fab antibodies were detected with a goat anti-human Fab antibody conjugated with horseradish peroxidase. After three wash cycles with PBST the ELISA was developed with TMB substrate.

Assay [4] has as its target T4, IGSF11 ECD fused to murine-Fc (human; mouse, UniProt Q5DX21 23-241).
T4 construct: also called Fc-fusion IGSF11 ECD; full-length ECD of IGSF11; not shown: murine Fc
T4 sequence: T1 sequence
As to the kind of experiment: ELISA, IgG. On the technique in general: ELISA stands for enzyme-linked immunosorbent assay.

In assay [5] the target is T5, human IGSF11 (VSIG3) on cells (human, UniProt Q5DX21 23-431).
T5 sequence: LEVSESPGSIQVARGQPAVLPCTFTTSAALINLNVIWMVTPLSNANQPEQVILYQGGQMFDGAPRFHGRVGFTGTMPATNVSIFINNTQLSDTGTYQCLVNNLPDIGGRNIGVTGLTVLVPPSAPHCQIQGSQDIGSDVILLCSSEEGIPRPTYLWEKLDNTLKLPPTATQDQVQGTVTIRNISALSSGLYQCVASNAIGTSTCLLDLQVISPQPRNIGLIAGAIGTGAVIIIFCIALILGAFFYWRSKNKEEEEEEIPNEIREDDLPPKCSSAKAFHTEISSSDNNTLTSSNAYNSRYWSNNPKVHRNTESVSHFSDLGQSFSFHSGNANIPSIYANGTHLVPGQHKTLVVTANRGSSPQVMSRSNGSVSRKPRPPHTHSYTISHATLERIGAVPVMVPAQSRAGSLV
As to the kind of experiment: FACS, IgG1-format antibodies; DMS 273 cells (D) treated with IGSF11 siRNA (KD). On the technique in general: In flow cytometry, cells or beads pass a laser one at a time.

Assay [6] has as its target T5, human IGSF11 (VSIG3) on cells. As to the kind of experiment: FACS, IgG1-format antibodies; M579-A2-luc cells (M) treated with IGSF11 siRNA (KD).
Assay [7] shares this target. In words: FACS, IgG1-format antibodies; M579-A2-luc cells (M) treated with scrambled control siRNA (SC).
Assay [8] has the same target. In words: FACS, IgG1-format antibodies; CL-11 cells (C), a line that does not express IGSF11 (specificity control), IGSF11 siRNA (KD).
For assay [9] the target is unchanged. In words: FACS, HEK cells expressing IGSF11.
Assay [10] shares this target. As to the kind of experiment: FACS, IgG1-format antibodies; DMS 273 cells (D) treated with scrambled control siRNA (SC).
The target is the same in assay [11]. As to the kind of experiment: FACS, IgG1-format antibodies; CL-11 cells (C), a line that does not express IGSF11 (specificity control), scrambled control siRNA (SC).
Assay [12] has the same target. As to the kind of experiment: FACS, DMS 273 cells.

Changes are numbered by the printed parent chain.

B1: A-034 (IgG1 format) (antibody, V domains shown)
VH: QMQLVQSGGGLVKPGGSLRLSCAASGFTFSSYTMNWVRQAPGKGLEWVSSISSIGTYIYYADSVKGRFTISRDNAKNSLYLQMNSLRAEDTAVYYCARVLLSGSYYGYFDSWGQGTLVTVSS
VL: QSVLTQPPSVSGAPGQRVTISCTGSSSNIGAGYDVHWYQQLPGTAPKLFIYGNSNRPSGVPDRFSGSKSGTSASLAITGLQAEDEADYYCQSYDSSLSGYVFGTGTKVTVL
notes: human IgG1 format
Regarding B1, the Kd in assay [1] lay in the range of 250 to 500 nM. Also, the EC50 in [2] lay in the range of 0.05 to 1 nM.

B2: C-006 (Fab format) (Fab, V domains shown)
VH: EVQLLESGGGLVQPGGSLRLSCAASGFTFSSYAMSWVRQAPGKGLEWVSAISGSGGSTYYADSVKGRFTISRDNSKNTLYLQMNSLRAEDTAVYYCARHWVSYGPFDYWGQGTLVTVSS
VL: DIQMTQSPSSLSASVGDRVTITCRASQSISSYLNWYQQKPGKAPKLLIYAASSLQSGVPSRFSGSGSGTDFTLTISSLQPEDFATYYCQQSHQSPPITFGQGTKVEIK
notes: Fab in E. coli lysate
For the molecule B2, the A450 in [3] was less than 1.

B3: C-012 (Fab format) (Fab, V domains shown)
VH: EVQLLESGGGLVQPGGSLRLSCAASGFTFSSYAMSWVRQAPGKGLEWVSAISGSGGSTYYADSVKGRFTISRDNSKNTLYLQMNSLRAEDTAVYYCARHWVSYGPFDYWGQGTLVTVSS
VL: B2 VL
notes: Fab in E. coli lysate
For the molecule B3, in [3], the A450 was less than 1.

B4: A-010 (IgG1 format) (antibody, V domains shown)
VH: QVQLVQSGAEVKKPGASVKVSCKASGYTFTSYGISWVRQAPGQGLEWMGWISAYNGNTNYAQKLQGRVTMTTDTSTSTAYMELRSLRSDDTAVYYCARVPAWSGQFDYWGQGTLVTVSS
VL: QSALTQPASVSGSPGQSITISCTGSSSDVGGYNYVSWYQQYPGKAPKLMIYDVRSRPSGVSNRFSGSKSGNTASLTISGLQAEDEADYYCTSYTSSNTLVIFGGGTKVTVL
notes: human IgG1 format
For B4, the EC50 is less than 1 nM in [4] and less than 0.02 nM in assay [2].

B5: A-007 (IgG1 format) (antibody, V domains shown)
VH: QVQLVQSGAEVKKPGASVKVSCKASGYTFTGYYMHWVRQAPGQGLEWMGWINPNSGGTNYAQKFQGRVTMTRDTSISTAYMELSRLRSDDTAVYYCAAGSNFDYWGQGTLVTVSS
VL: QSALTQPASVSGSPGQSITIACTGSSSDIGSFSYVSWYQQRPGKAPTLIIYGVNNRPLGVSRRFSGSKSGNTASLSISGLQAEDEADYYCSSYTRRSTVIFGGGTKLTVL
notes: human IgG1 format
For B5, the “percentage binding (FACS heat-map)” value in assay [5] was determined as 34.2%; in [6], 9.15%; in assay [7], 65.6%; in assay [8], 13.2%; in assay [10], 82.3%; in [11], 8.88%. Also, the EC50 was less than 10 nM in assay [9], less than 0.02 nM in assay [2] and less than 10 nM in [12].

B6: A-004 (IgG1 format) (antibody, V domains shown)
VH: EVQLVESGGGLVKPGGSLRLSCAASGFTFSSYSMNWVRQAPGKGLEWVSSISSSSSYIYYADSVKGRFTISRDNAKNSLYLQMNSLRAEDTAVYYCARGQLLWFGESALIDAFDIWGQGTMVTVSS
VL: EIVLTQSPSSLSASVGDRVTITCRASQSISSYLNWYQLKPGKAPKLLIYAASILQSGVPSRFSGSGSGTDFTLTISSLQPEDFAAYYCQQSYSTPRTFGQGTKLEIK
notes: human IgG1 format
With B6, the values for the EC50 in assay [4] and in [2] were 1 to 20 nM and less than 0.02 nM, respectively. Also, the Kd in [1] lay within 100 to 250 nM.

B7: A-013 (IgG1 format) (antibody, V domains shown)
VH: EVQLVESGGGLIQPGGSLRLSCAASGFTVSSNYMSWVRQAPGKGLEWVSVIYSGGSTYYADSVKGRFTISRDNSKNTLYLQMNSLRAEDTAVYYCARGNPYYYGDLQVNFDYWGQGTLVTVSS
VL: QAVVTQEPSLTVSPGGTVTLTCASSTGAVTSAYYPNWFQQKPGQAPRALIYSTSNKHSWTPARFSGSLLGGKAALTLSGVQPEDEADYYCLLYYGGAWVFGGGTKLTVL
notes: human IgG1 format
B7: the figures for the EC50 in [9], in assay [2] and in assay [12] were 10 to 50 nM, less than 0.02 nM and more than 50 nM, respectively. The Kd in assay [1] was in the range of 100 to 250 nM.

B8: A-022 (IgG1 format) (antibody, V domains shown)
VH: EVQLLESGPGLVKPSQTLSLTCTVSGGSISSGGYYWSWIRQHPGKGLEWIGYIYYSGSTYYNPSLKSRVTISVDTSKNQFSLKLSSVTAADTAVYYCARASRSTDYYFDYWGQGTLVTVSS
VL: QPGLTQPPSMSYGLGQTATLTCTGNRNNIGDQGAAWLQQHQGHPPKLLSYRNNNGPSGISERLSASRSGNTASLTISGLQPEDEADYYCSAWDSSLRAWVFGGGTKLTVL
notes: human IgG1 format
Take B8: the EC50 in assay [4] was less than 1 nM; in assay [9], 10 to 50 nM; in assay [2], less than 0.02 nM; in assay [12], 10 to 50 nM.

B9: A-027 (IgG1 format) (antibody, V domains shown)
VH: QVQLVQSGAEVKKPGSSVKVSCKASGGTFSSYAISWVRQAPGQGLEWMGGIIPIFGTANYAQKFQGRVTITADKSTSTAYMELSSLRSEDTAVYYCARARGSTWGYFDYWGQGTLVTVSS
VL: EIVLTQSPASLSLSPGERVTLSCRASQSVSNYLAWYQQKPGQAPRLLIYDASNRATGIPARFSGSGSGTDFTLTISSLEPEDFAVYYCQQRDNWPLTFGGGTKVEIK
notes: human IgG1 format
Consider B9, for which the “percentage binding (FACS heat-map)” value was found to be 2.63% in [5]; 2.5% in assay [6]; 3.32% in assay [7]; 4.75% in assay [8]; 14.3% in assay [10]; 3.08% in [11]. Further, the results for the EC50 in assay [4], in [9] and in assay [2] were 1 to 20 nM, more than 50 nM and more than 1 nM, respectively.

B10: A-035 (IgG1 format) (antibody, V domains shown)
VH: QVQLVQSGAEVKKPGASVKVSCKASGYTFTGYYMHWVRQAPGQGLEWMGWINPNSGNTGYAQKFQGRVTMTRNTSISTAYMELSSLRSEDTAVYYCARGRLERGYWYFDLWGRGTLVTVSS
VL: NFMLTQPHSVSESPGRTVTISCTRSSGSITSNYVQWYQQRPGSAPTILIYEDKERPSEVPDRFSGSIDISSNSASLTISGLKTEDEADYYCQSYGGTSQGVLFGGGTKVTVL
notes: human IgG1 format
With B10, the EC50 in assay [4] is 1 to 20 nM; in assay [9], more than 50 nM; in assay [2] it was 0.02 to 0.05 nM.

B11: A-015 (IgG1 format) (antibody, V domains shown)
VH: not shown
VL: QPVLTQSPSASASLGASVKLTCTLSSGHTNYAIAWRQQQPGKAPRYLMLLNSDGSHTRGGGIPDRFSGSSSGAERYLTISSLQSEDEADYYCMIWHNNAWVFGGGTKLAVL
notes: human IgG1 format
In the case of B11, the “percentage binding (FACS heat-map)” value was 1.6% in assay [5]; 1.3% in [6]; 1.17% in [7]; 2.91% in [8]; 5.97% in assay [10]; 1.95% in [11].

For orientation: Kd means the free concentration of one partner at which half of the binding sites on the other are occupied at equilibrium, for simple one-to-one binding. As usually defined, the EC50 is the midpoint of the concentration-response curve.
